To fix the notation:
B1: biotinylated ClfA region A protein (other)
chain: SENSVTQSDSASNESKSNDSSSVSAAPKTDDTNVSDTKTSSNTNNGETSVAQNPAQQETTQSSSTNATTEETPVTGEATTTTTNQANTPATTQSSNTNAEELVNQTSNETTFNDTNTVSSVNSPQNSTNAENVSTTQDTSTEATPSNNESAPQSTDASNKDVVNQAVNTSAPRMRAFSLAAVAADAPAAGTDITNQLTNVTVGIDSGTTVYPHQAGYVKLNYGFSVPNSAVKGDTFKITVPKELNLNGVTSTAKVPPIMAGDQVLANGVIDSDGNVIYTFTDYVNTKDDVKATLTMPAYIDPENVKKTGNVTLATGIGSTTANKTVLVDYEKYGKFYNLSIKGTIDQIDKTNNTYRQTIYVNPSGDNVIAPVLTGNLKPNTDSNALIDQQNTSIKVYKVDNAADLSESYFVNPENFEDVTNSVNITFPNPNQYKVEFNTPDDQITTPYIVVVNGHIDPNSKGDLALRSTLYGYNSNIIWRSMSWDNEVAFNNGSGSGDGIDKPVVPEQPDEPGEIEPIPE
modifications: biotinylated (sites not given)
notes: domain: region A; also called biotinylated recombinant region A from ClfA; C1fA region A
B2: beta chain of human fibrinogen (other)
chain: QGVNDNEEGFFSARGHRPLDKKREEAPSLRPAPPPISGGGYRARPAKAAATQKKVERKAPDAGGCLHADPDLGVLCPTGCQLQEALLQQERPIRNSVDELNNNVEAVSQTSSSSFQYMYLLKDLWQKRQKQVKDNENVVNEYSSELEKHQLYIDETVNSNIPTNLRVLRSILENLRSKIQKLESDVSAQMEYCRTPCTVSCNIPVVSGKECEEIIRKGGETSEMYLIQPDSSVKPYRVYCDMNTENGGWTVIQNRQDGSVDFGRKWDPYKQGFGNVATNTDGKNYCGLPGEYWLGNDKISQLTRMGPTELLIEMEDWKGDKVKAHYGGFTVQNEANKYQISVNKYRGTAGNALMDGASQLMGENRTMTIHNGMFFSTYDRDNDGWLTSDPRKQCSKEDGGGWWYNRCHAANPNGRYYWGGQYTWDMAKHGTDDGVVWMNWKGSWYSMRKMSMKIRPFFPQQ
notes: Band of human fibrinogen (Chromogenix) after SDS-PAGE, on nitrocellulose; also called β chain of fibrinogen
B3: biotinylated ClfB (His-tag recombinant region A) (other)
chain: SEQSNDTTQSSKNNASADSEKNNMIETPQLNTTANDTSDISANTNSANVDSTTKPMSTQTSNTTTTEPASTNETPQPTAIKNQATAAKMQDQTVPQEGNSQVDNKTTNDANSIATNSELKNSQTLDLPQSSPQTISNAQGTSKPSVRTRAVRSLAVAEPVVNAADAKGTNVNDKVTASNFKLEKTTFDPNQSGNTFMAANFTVTDKVKSGDYFTAKLPDSLTGNGDVDYSNSNNTMPIADIKSTNGDVVAKATYDILTKTYTFVFTDYVNNKENINGQFSLPLFTDRAKAPKSGTYDANINIADEMFNNKITYNYSSPIAGIDKPNGANISSQIIGVDTASGQNTYKQTVFVNPKQRVLGNTWVYIKGYQDKIEESSGKVSATDTKLRIFEVNDTSKLSDSYYADPNDSNLKEVTDQFKNRIYYEHPNVASIKFGDITKTYVVLVEGHYDNTGKNLKTQVIQENVDPVTNRDYSIFGWNNENVVRYGGGSADGDSAVN
modifications: Biotinylated with EZ link-sulfo-NHS-LC-Biotin (sites not given); N-terminal His-tag from pV4 left off.
notes: Region A (S45 to N542) amplified from S. aureus Newman genomic DNA, cloned in His-tag vector pV4, purified on nickel; also called ClfB region A; biotinylated purified ClfB region A
B4: gamma chain of human fibrinogen (other)
chain: YVATRDNCCILDERFGSYCPTTCGIADFLSTYQTKVDKDLQSLEDILHQVENKTSEVKQLIKAIQLTYNPDESSKPNMIDAATLKSRKMLEEIMKYEASILTHDSSIRYLQEIYNSNNQKIVNLKEKVAQLEAQCQEPCKDTVQIHDITGKDCQDIANKGAKQSGLYFIKPLKANQQFLVYCEIDGSGNGWTVFQKRLDGSVDFKKNWIQYKEGFGHLSPTGTTEFWLGNEKIHLISTQSAIPYALRVELEDWNGRTSTADYAMFKVGPEADKYRLTYAYFAGGDAGDAFDGFDFGDDPSDKFFTSHNGMQFSTWDNDNDKFEGNCAEQDGSGWWMNKCHAGHLNGVYYQGGTYSKASTPNGYDNGIIWATWKTRWYSMKKTTMKIIPFNRLTIGEGQQHHLGGAKQAGDV
notes: Band of human fibrinogen (Chromogenix) after SDS-PAGE, on nitrocellulose; also called γ chain of fibrinogen

The target of assay [1] is T1, bovine serum albumin (bovine, UniProt P02769 25-607).
T1 construct: Negative control coat in ELISA; also called BSA
T1 sequence (P02769 25-607 limits assumed): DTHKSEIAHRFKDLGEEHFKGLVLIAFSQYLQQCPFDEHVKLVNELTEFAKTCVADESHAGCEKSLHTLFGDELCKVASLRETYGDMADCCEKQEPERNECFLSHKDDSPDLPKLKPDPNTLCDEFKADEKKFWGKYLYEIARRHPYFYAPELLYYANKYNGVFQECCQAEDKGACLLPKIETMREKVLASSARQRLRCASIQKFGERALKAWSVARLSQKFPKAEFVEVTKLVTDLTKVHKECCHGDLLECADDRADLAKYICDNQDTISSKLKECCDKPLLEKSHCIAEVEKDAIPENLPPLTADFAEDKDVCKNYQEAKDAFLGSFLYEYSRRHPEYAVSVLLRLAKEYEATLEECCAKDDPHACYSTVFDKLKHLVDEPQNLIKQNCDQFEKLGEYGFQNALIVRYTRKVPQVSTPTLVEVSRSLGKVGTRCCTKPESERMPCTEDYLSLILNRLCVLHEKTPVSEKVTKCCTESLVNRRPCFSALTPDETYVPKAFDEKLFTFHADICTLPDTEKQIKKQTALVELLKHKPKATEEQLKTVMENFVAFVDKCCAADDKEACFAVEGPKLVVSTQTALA
The assay can be described thus: direct ELISA, biotinylated region A on BSA-coated plates.

Assay [2] has as its target T2, human fibrinogen (human, UniProt P02671 20-629; P02675 31-491; P02679 27-437).
T2 construct: Purified human fibrinogen, bought (Chromogenix for ELISA, Calbiochem for clumping); The plate adherence assays say only 'fibrinogen'; also called solid phase fibrinogen; immobilized fibrinogen
T2 sequence 1: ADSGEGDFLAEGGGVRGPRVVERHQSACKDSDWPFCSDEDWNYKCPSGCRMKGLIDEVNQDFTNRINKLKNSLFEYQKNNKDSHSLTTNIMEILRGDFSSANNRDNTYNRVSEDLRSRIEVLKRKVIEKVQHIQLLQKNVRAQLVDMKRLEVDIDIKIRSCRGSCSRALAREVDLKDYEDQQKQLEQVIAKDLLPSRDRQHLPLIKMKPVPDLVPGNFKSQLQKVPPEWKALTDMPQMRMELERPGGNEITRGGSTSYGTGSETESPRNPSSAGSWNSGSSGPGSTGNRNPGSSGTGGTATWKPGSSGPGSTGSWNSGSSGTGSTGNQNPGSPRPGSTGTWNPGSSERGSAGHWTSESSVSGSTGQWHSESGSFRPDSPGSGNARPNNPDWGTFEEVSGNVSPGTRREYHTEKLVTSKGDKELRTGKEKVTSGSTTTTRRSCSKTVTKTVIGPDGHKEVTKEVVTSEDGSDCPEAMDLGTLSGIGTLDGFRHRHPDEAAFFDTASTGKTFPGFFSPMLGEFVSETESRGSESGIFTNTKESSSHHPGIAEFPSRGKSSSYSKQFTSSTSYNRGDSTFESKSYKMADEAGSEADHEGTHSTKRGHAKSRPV
T2 sequence 2: B2 chain
T2 sequence 3: B4 chain
Kind of assay: direct ELISA, biotinylated region A on fibrinogen-coated plates (Figure 14).

Assay [3] addresses B3. The assay can be described thus: Western affinity blot, blotted human fibrinogen probed with 2.5 µg/ml biotinylated ClfB region A.
Assay [4] addresses T3, alpha chain of human fibrinogen (human, UniProt P02671 20-629).
T3 construct: Band of human fibrinogen (Chromogenix) after SDS-PAGE, on nitrocellulose; also called α chain of fibrinogen
T3 sequence: T2 sequence 1
The assay is described as above.

The target in assay [5] is B1. Kind of assay: Western affinity blot (Figure 22), blotted human fibrinogen probed with 2.5 µg/ml biotinylated region A.

For the molecule B1, the binding result in assay [1] is “no binding”. For the same molecule, the “binding at the highest concentration relative to ClfB region A” value in assay [2] was around 50 % greater than ClfB.

Take B2: the binding result in assay [3] is on record as “binds”.

Take B3: the results for the binding result in assay [1], in assay [2] and in assay [4] were “no binding (tested: 0.1-10 µg/ml)”, “binds” and “binds”, respectively. Regarding B4, in assay [5], the binding result is “binds”.

(Values after patent EP2319931A1 (Inhibitex, Inc., dated 2011).)
